Laboratory results as given in patent US20230277593A1.
Each block holds one binder with its values, some of them ahead of it.

How the values were obtained:
[1] = target: HLA-A*02 on target cells (human); assay: cell-based or functional assay
[2] = target: Epidermal Growth Factor Receptor (EGFR) on target cells (human), P00533; assay: cell-based or functional assay

Human Blocker EC50 (ng), with activator CT486; HLA-A*02 mRNA titrated into target cells [1]: 4000 ng
Human Blocker EC50 (ng), with activator CT487; HLA-A*02 mRNA titrated into target cells [1]: 2900 ng
Human Blocker EC50 (ng), with activator CT488; HLA-A*02 mRNA titrated into target cells [1]: 3500 ng
Human Blocker EC50 (ng), with activator CT489; HLA-A*02 mRNA titrated into target cells [1]: 3200 ng
selectivity ratio (humanized blocker C2162 paired with CT486) [1]: 17
selectivity ratio (humanized blocker C2162 paired with CT487, first mention) [1]: 5
selectivity ratio (humanized blocker C2162 paired with CT487 as printed, second mention) [1]: 5
selectivity ratio (humanized blocker C2162 paired with CT489) [1]: 24.2
B1: HLA-A*02 PA2.1 scFv LIR1 inhibitor (C2162) (scFv, part only; not given: LIR-1 hinge, transmembrane and intracellular, part only)
scFv, part: QVQLVQSGAEVKKPGSSVKVSCKASGYTFTSYHIHWVRQAPGQGLEWIGWIYPGNVNTEYNEKFKGKATITADESTNTAYMELSSLRSEDTAVYYCAREEITYAMDYWGQGTLVTVSSGGGGSGGGGSGGGGSGGDIQMTQSPSTLSASVGDRVTITCRSSQSIVHSNGNTYLEWYQQKPGKAPKLLIYKVSNRFSGVPARFSGSGSGTEFTLTISSLQPDDFATYYCFQGSHVPRTFGQGTKVEVK

Mouse Blocker EC50 (ng), with activator CT486; HLA-A*02 mRNA titrated into target cells [1]: 4700 ng
Mouse Blocker EC50 (ng), with activator CT487; HLA-A*02 mRNA titrated into target cells [1]: 3500 ng
Mouse Blocker EC50 (ng), with activator CT488; HLA-A*02 mRNA titrated into target cells [1]: 4700 ng
Mouse Blocker EC50 (ng), with activator CT489; HLA-A*02 mRNA titrated into target cells [1]: 4200 ng
selectivity ratio (mouse blocker C1765 paired with CT486) [1]: 15.7
selectivity ratio (mouse blocker C1765 paired with CT487, first mention) [1]: 18.4
selectivity ratio (mouse blocker C1765 paired with CT487 as printed, second mention) [1]: 21.2
selectivity ratio (mouse blocker C1765 paired with CT489) [1]: 21.6
shift of CAR EMAX (Jurkat NFAT-luciferase, with EGFR CAR CT479, HeLa target cells) [1]: > 5 fold
B2: HLA-A*02 PA2.1 scFv LIR1 inhibitor (C1765) (scFv, part only; not given: LIR-1 hinge, transmembrane and intracellular, part only)
scFv, part: DVLMTQTPLSLPVSLGDQASISCRSSQSIVHSNGNTYLEWYLQKPGQSPKLLIYKVSNRFSGVPDRFSGSGSGTDFTLKISRVEAEDLGVYYCFQGSHVPRTSGGGTKLEIKGGGGSGGGGSGGGGSGGQVQLQQSGPELVKPGASVRISCKASGYTFTSYHIHWVKQRPGQGLEWIGWIYPGNVNTEYNEKFKGKATLTADKSSSTAYMHLSSLTSEDSAVYFCAREEITYAMDYWGQGTSVTVSS

Activator EC50 (ng); EGFR mRNA titrated into EGFR negative target cells [2]: 3500 ng
B3: CT-487 EGFR scFv CAR activator (scFv, not shown: small tags and cut ends)
scFv: QVQLVQSGAEVKKPGASVKVSCKASGYTFTSHWMHWVRQAPGQGLEWIGEFNPSNGRTNYNEKFKSKATMTVDTSTNTAYMELSSLRSEDTAVYYCASRDYDYDGRYFDYWGQGTLVTVSSGGGGSGGGGSGGGGSGGDIQMTQSPSSLSASVGDRVTITCSASSSVTYMYWYQQKPGKAPKLLIYDTSNLASGVPSRFSGSGSGTDYTFTISSLQPEDIATYYCQQWSSHIFTFGQGTKVEIK
